The results in this text go back to the RNAGym collection of RNA variant scans (doi:10.1073/pnas.2313332121).

To fix the notation:
B1: TPR t1 (parent)
chain: GACCAAUCUGCCCUCAGAGCUCGAGAACAUCUUCGGAUGCAGAGGAGGCAGGCUUCGGUGGCGCGAUAGCGCCAACGUCCUCAACCUCCAAUGCAUCCCACCACAUGAUGAUGCCUGAAGAGCCUUGGUUUUUUG

The variants in this data set derive from B1. The experiment in a line: polymerase ribozyme fitness, log enrichment relative to wild type (log ratio); higher = more active; in vitro selection for triplet polymerase activity. In outline: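 Mutant libraries of each subunit of a heterodimeric triplet polymerase ribozyme were built by PCR and transcribed. Each library went through one round of in vitro selection in triplicate: annealing with biotinylated primer, partner subunit and triplets, frozen incubation at −7 °C, gel excision of extended constructs, streptavidin-bead capture and RT-PCR. Input and output libraries were Illumina-sequenced; only genotypes with ≥10 input reads and ≥1 read per output were kept. Fitness is log2(genotype enrichment/wild-type enrichment), using inverse-variance-weighted replicate averages.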
As for GACCAAUCUGCCCUCAUAGCUCGAGAACAUCUUCGGAUGCAGAGGAGUCAGGCUUAGGUGGCGCGAUAGCGCCAACGCCCUCAACCGCCAAUGCAUCCCACCACAUGAUGAAGCCUGAAGAGCCUUGGUUUUUUG [G17U G48U C56A U78C U87G U112A], the “polymerase ribozyme fitness (log ratio)” value was -3.06.
The value for GACCAAUCUGCCCUCAUAGCUCGAGAACAUCUUCGGAUGCAGAGGAGGCAGGCUUCGGUGGCGCGAUAGCGCGAACGUCCUCAACCUCCAAUGCAUCCCACCACAUGAUGAUGCCUGAAGAGCCUUGGUUUUUUG [G17U C73G] was -2.39.
As to GACCAAUCUGCCCUCAUAGCUCGAGAACAUCUUCGGAAGCAGAGGAGGCAGGCUUCGGUGGCGCGAUAGCCCCAACGUCCUCAACCUCCAAUGCAUCCCACCACAUGAUGAUGCCUGAAGAGCCAUGGUUUUUUG [G17U U38A G71C U125A], the “polymerase ribozyme fitness (log ratio)” value was -4.76.
The value for GACCAAUCUGCCCUCAUAGCUCGAGAACAUCUUCGGAUGCAGAGGAGGCAGGCUUCGGUGGCGCGAUAGCGCCAACGUCCUCAACCUCGAAUGCAUCCCACCACAUGAUGAUGCCUGAAGAGCCUUGGUUUUUUG [G17U C89G] was -2.98; that for GACCAAUCUGCCCUCAUAGCUCGAGAACAUCUUCGGAUGCAGAGGAGGCAGGCUUCGGUGGCGCGAUAGCGCCAACGUCCUCAACCUCCAAUGCAUCCCACCACAUGAUGAUGGCUGAAGAGCCUUGGUUUAUUG [G17U C114G U132A] was -5.35.
The value for GACCAAUCUGCCCUCAUAGCUCGAGAACAUCUUCGGAUGCAGAGGAGGCAGGCUUCGGUGGUGCGAUAGCGCUAACGUCCUCAACCUCCAAUGCAUCCCAACACAUGAUGAUGCCUGAAGAGCCUUGGUCUUUUG [G17U C62U C73U C101A U130C] was -3.73.
GACCAAUCUGCCCUCAUAGCUCGAGAACAUCUUCGGAUGCAGAGGAGGCAGGCUUCGGUUGCGCGAUAGCGCCAACGUCCACAACCUCCAAUGCAUCCCACCACAUGAUGAUGCCUGAAGAGCCUUGGUUUUUUG [G17U G60U U81A]: the “polymerase ribozyme fitness (log ratio)” value is -3.3.
The value for GACCAAUCUGCCCUCAUAGCUCGAGAACAUCUUCGGAUGCAGAAGAGGCAGGCUUCGGUGGUGCGAUAGCGCCAACGUCCUCUACCUCCAAUGCAUCCCACCACAUGAUGAUGCCUAAAGAGCCUUGGUUUUUUG [G17U G44A C62U A83U G117A] was -5.24.
GACCAAUCUGCCCUCAUAGCUCGAGAACAUCUUCGGAUGCAGAGGAGGCAGGCUACGGUGGCGCGAUAGCGCCAACGUCCUCAACCUCCAAUGCAUCCCACCACAUGAUGAAGGCUGAACAGCCUUGGUUUUUUG [G17U U55A U112A C114G G120C]: the “polymerase ribozyme fitness (log ratio)” value is -5.87.
GACCAAUCUGCCCUCAUAGCUCGAGAACAUCUUCGGAUGCAGAGGAGGCAGGCUUCGGUGGCACGAUAGCGCCAACGUCCUCAACCUCCAAUGCAUCCCACCACAUGAUGAAGCCUGAAGAGCCGUGGUUUUUUG [G17U G63A U112A U125G]: the “polymerase ribozyme fitness (log ratio)” value is -3.29.
GACCAAUCUGCCCUCAUAGCUCGAGAACAUCUUCGGAUGCAGAGGAGGCAGGCUUCGGUGACGCGAUAGCGCCAACGUCCUCAACCUCCAAUGCAUCCCACCACAUGAUGAUGCCUGAAGAGCCUUGGUUUUUUG [G17U G61A]: the “polymerase ribozyme fitness (log ratio)” value was -2.18.
On to GACCAAUCUGCCCUCAUAGCUCGAGAACAUCUUCGGAUUCAGAGGAGGCAGGCUUCGGUGGCGCGAUAGCGCCAACGUCCUCAACCUCCAAUGCAUCCCACCACAUGAUUAUGCCUGAAGAGCCUUGGUUUUUUG [G17U G39U G110U], for which the “polymerase ribozyme fitness (log ratio)” value is -4.99.
The value for GACCAAUCUGCCCUCAUAGCUCGAGAACAUCUUCGGAUGCAGAGGAGGCAGGCUUCGGUGGCGCGAUAGCGCCAACGUCCUGAACCUCCAAUGCAUCCCACCACAUGAUGAUGCCUGAAGAGCCUUGGUUUUUUG [G17U C82G] was -2.98.
The value for GACCAAUCUGCCCUCAUAGCUCGAGAACAUCUUCGGAUGCAGAGGAGGCAGCCUUCGGUGGCGCGAUAGCGCCAACUUCCUCAACCUCCAAUGCAUCCCACCACAUGAUGAUGCCUGAAGAGUCUUGGUUUUUUG [G17U G52C G77U C123U] was -2.34; that for GACCAAUCUGCCCUCAUAGCUCGAGAACAUCUUCGGAUGCAGAGGAAGUAGGUUUCGGUGGCGCGAUAGCGUCAACGUCCUCAACCUCCAAUGCAUCCCACCACAUGAUGAUGCCUGAAGAGCCUUGGUUUUUUG [G17U G47A C49U C53U C72U] was -4.
The value for GACCAAUCUGCCCUCAUAGCUCGAGAACAUCUUCGGAUGCAGAGGAGGCAGGCUUCAGUGGCGCGAUAGCGCCAACGUCCUCAACCUCCAAUGCAUCCCAACACAUUAUGAUGCCUGAACAGCCUUAGUUUCUUG [G17U G57A C101A G107U G120C G127A U132C] was -5.32; that for GACCAAUCUGCCCUCAUAGCUCGAGAACAUCUUCGGAUGCAGAGGAGGCAGGCUUCGGUGGAGCGAUAGCGCCAACGUCCUCAACCUCCAAUGCAUCCCACCACAUGAUGAUGCCUGAAGAGCCUUGGUUUUUUG [G17U C62A] was -2.83; that for GACCAAUCUGCCCUCAUAGCUCGAGAACAUCUUCGGAUGCAGAGGAGGCAGGCUUCGGUGGCGCGAUAGCGGCAACGUCCUCAACCUCCAAUGCAUCCCACCACAUGAUGAUGCCUGAAGAGCCUUGGUUUUUUG [G17U C72G] was -2.35.
GACCAAUCUGCCCUCAUAGCUCGAGAACAUCUUCGGAUGCAGAGGAGGCAGGCUUCGGUGGCGCGAUAGCUCCAACGUCCUCAACCUCCAAUGCAUCCCACCACAUGAUGAUGCCUGAAGAGCCUUGGUUUAUUG [G17U G71U U132A]: the “polymerase ribozyme fitness (log ratio)” value is -2.7.
Turning to GACCAAUCUGCCCUCAUAGCUCGAGAACAUCUUCGGAUGCAGAGGAGGCAGGCUUCGGUGGCGUGAUAGCGCCAACGUCCUCAACCUCCAAUGCAUCCCACCACAUGAUGAUGCCUGAAGAGCCUUGGUUUUUUG [G17U C64U], the “polymerase ribozyme fitness (log ratio)” value was -2.46.
Consider GACCAAUCUGCCCUCAUAGCUCGAGAACAUCUUCGGAUGCAGAGGAGGCAGGCUUCGGUGGCGCGAUAGCGCCAACGUCCUCAACCUCCAAUGCAUCCCACCACAUGAUGAUGCCUAAAGAGCCUUGGAUUUUUG [G17U G117A U129A], for which the “polymerase ribozyme fitness (log ratio)” value was -4.12.
